{
  "source": "patent US6312887",
  "about": "“Method of using a crystal of the N-terminal domain of a signal transducer and activator of transcription” (The Rockefeller University)",
  "binders": {"B1": {"name": "tandem c-fos STAT recognition element, 10 bp spacing (dsDNA)", "DNA 1": "GCCAGTCAGTTCCCGTCAATGCATCAGGTTCCCGTCAATGCAT", "DNA 2": "ATGCATTGACGGGAACCTGATGCATTGACGGGAACTGACTGGC"}},
  "target": "STAT-1alpha wild type (Tyr-phosphorylated) (Homo sapiens, UniProt P42224 P42224:2-750)",
  "sequence (P42224 2-750, one chain of several)": "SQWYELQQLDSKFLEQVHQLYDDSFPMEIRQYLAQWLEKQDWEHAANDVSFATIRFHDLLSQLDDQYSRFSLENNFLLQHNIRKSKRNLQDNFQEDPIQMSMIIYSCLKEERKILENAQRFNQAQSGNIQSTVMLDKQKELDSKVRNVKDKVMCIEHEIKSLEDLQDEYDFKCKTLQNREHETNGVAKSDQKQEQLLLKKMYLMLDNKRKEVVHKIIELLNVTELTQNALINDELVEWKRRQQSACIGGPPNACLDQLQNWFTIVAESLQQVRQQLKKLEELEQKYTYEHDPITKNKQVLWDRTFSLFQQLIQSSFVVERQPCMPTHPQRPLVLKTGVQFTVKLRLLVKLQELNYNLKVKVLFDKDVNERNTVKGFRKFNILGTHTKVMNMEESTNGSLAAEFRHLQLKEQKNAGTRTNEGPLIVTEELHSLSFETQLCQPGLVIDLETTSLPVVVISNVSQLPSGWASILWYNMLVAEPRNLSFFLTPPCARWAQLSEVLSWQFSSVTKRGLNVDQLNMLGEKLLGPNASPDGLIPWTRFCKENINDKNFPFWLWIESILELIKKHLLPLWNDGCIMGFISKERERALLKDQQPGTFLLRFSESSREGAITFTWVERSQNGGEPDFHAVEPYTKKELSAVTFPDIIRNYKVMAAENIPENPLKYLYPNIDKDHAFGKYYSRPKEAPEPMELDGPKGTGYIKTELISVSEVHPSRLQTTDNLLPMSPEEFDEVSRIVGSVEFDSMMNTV",
  "assay": "EMSA",
  "details": "tags: in vitro Tyr-phosphorylated with EGF-receptor kinase; chain copies: 4 on tandem site (two dimers), stated; 2 on single site; label: radiolabel",
  "description": "Both protein preparations (Tyr-phosphorylated wild type STAT-1α and W37A mutant) were titrated in gel shift experiments with an oligonucleotide containing a single M67 site (5'-GCCGAT TTCCCGTAAATCAT-3', SEQ ID NO:5) [Wagner et al., *EMBO J.* 9:4477 (1990)] to assure similar loading of active protein. A 12.5 μl reaction volume contained DNA binding buffer (20 mM Hepes/HCl, 4% Ficoll, 40 mM KCl, 10 mM MgCl_2, 10 mM CaCl_2, 1 mM DTT) radiolabelled DNA at a final concentration of 1×10^-10 M unless stated otherwise, 50 ng dIdC, 0.2 mg/ml BSA (Boebringer Mannheim), and the indicated amount of purified phosphorylated STAT protein. The reaction volume was mixed and then incubated at room temperature. The time necessary to reach equilibrium was assessed by EMSA [(Stone et al., in Jost, J.P. & Saluz, H.P. (eds) *A Laboratory Guide to In Vitro Studies of Protein-DNA Interactions* BioMethods, vol.5:163–195 (1991)]. For all DNA fragments tested, equilibrium turned out to be fully established at the earliest timepoint that can be determined by this technique (30 sec). Therefore incubation periods of 5–15 minutes were chosen. Reaction products were loaded onto a 4% polyacrylamide gel (1.5 mm thick) containing 0.25×Tris-borate-EDTA which had been pre-run at 20V/cm for 2 hours at 4° C. Electrophoresis was continued for 60 minutes at 4° C. […]",
  "data": [
    {"binder": "B1", "values": [
      {"measurement": "binding result", "value": "binds"}
    ]}
  ]
}
